Results reported in patent US20260242735A1 (UNIVERSIT T BASEL, published 2026).

Experiments:
Assay in all cases: alanine scan, flow cytometry, HEK293-T;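 further: antibody binding to each alanine-substituted CD33 mutant expressed transiently in HEK293-T, read as fluorescence minus background, mean of duplicates, relative to wild-type CD33 set as 100%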
human CD33 K52A = human CD33 K52A (human, UniProt P20138 18-364)
human CD33 P55A = human CD33 P55A (human, UniProt P20138 18-364)
human CD33 G58A = human CD33 G58A (human, UniProt P20138 18-364)
human CD33 W60A = human CD33 W60A (human, UniProt P20138 18-364)
human CD33 S68A = human CD33 S68A (human, UniProt P20138 18-364)
human CD33 P72A = human CD33 P72A (human, UniProt P20138 18-364)
human CD33 T75A = human CD33 T75A (human, UniProt P20138 18-364)
human CD33 L78A = human CD33 L78A (human, UniProt P20138 18-364)
human CD33 E85A = human CD33 E85A (human, UniProt P20138 18-364)
human CD33 Q87A = human CD33 Q87A (human, UniProt P20138 18-364)
human CD33 R89A = human CD33 R89A (human, UniProt P20138 18-364)
human CD33 R91A = human CD33 R91A (human, UniProt P20138 18-364)
human CD33 G94A = human CD33 G94A (human, UniProt P20138 18-364)
human CD33 D95A = human CD33 D95A (human, UniProt P20138 18-364)
human CD33 N99A = human CD33 N99A (human, UniProt P20138 18-364)
human CD33 P46A = human CD33 P46A (human, UniProt P20138 18-364)
human CD33 S102A = human CD33 S102A (human, UniProt P20138 18-364)
human CD33 A108S = human CD33 A108S (human, UniProt P20138 18-364)
human CD33 D112A = human CD33 D112A (human, UniProt P20138 18-364)
human CD33 Y127A = biological target: T1, human CD33 Y127A (human, UniProt P20138 18-364)
T1 construct: alanine scan clone, transfected HEK293-T

human CD33 S131A = biological target: T2, human CD33 S131A (human, UniProt P20138 18-364)
T2 construct: alanine scan clone, transfected HEK293-T

human CD33 T139A = biological target: T3, human CD33 T139A (human, UniProt P20138 18-364)
T3 construct: alanine scan clone, transfected HEK293-T

human CD33 R144A = biological target: T4, human CD33 R144A (human, UniProt P20138 18-364)
T4 construct: alanine scan clone, transfected HEK293-T

human CD33 P150A = biological target: T5, human CD33 P150A (human, UniProt P20138 18-364)
T5 construct: alanine scan clone, transfected HEK293-T

human CD33 T152A = biological target: T6, human CD33 T152A (human, UniProt P20138 18-364)
T6 construct: alanine scan clone, transfected HEK293-T

human CD33 L153A = biological target: T7, human CD33 L153A (human, UniProt P20138 18-364)
T7 construct: alanine scan clone, transfected HEK293-T

human CD33 E154A = biological target: T8, human CD33 E154A (human, UniProt P20138 18-364)
T8 construct: alanine scan clone, transfected HEK293-T

human CD33 E121A = biological target: T9, human CD33 E121A (human, UniProt P20138 18-364)
T9 construct: alanine scan clone, transfected HEK293-T

human CD33 C169A = biological target: T10, human CD33 C169A (human, UniProt P20138 18-364)
T10 construct: alanine scan clone, transfected HEK293-T

human CD33 T173A = biological target: T11, human CD33 T173A (human, UniProt P20138 18-364)
T11 construct: alanine scan clone, transfected HEK293-T

human CD33 R122A = biological target: T12, human CD33 R122A (human, UniProt P20138 18-364)
T12 construct: alanine scan clone, transfected HEK293-T

human CD33 L180A = biological target: T13, human CD33 L180A (human, UniProt P20138 18-364)
T13 construct: alanine scan clone, transfected HEK293-T

human CD33 A183S = biological target: T14, human CD33 A183S (human, UniProt P20138 18-364)
T14 construct: alanine scan clone, transfected HEK293-T

human CD33 R190A = biological target: T15, human CD33 R190A (human, UniProt P20138 18-364)
T15 construct: alanine scan clone, transfected HEK293-T

human CD33 H193A = biological target: T16, human CD33 H193A (human, UniProt P20138 18-364)
T16 construct: alanine scan clone, transfected HEK293-T

human CD33 S195A = biological target: T17, human CD33 S195A (human, UniProt P20138 18-364)
T17 construct: alanine scan clone, transfected HEK293-T
T17 sequence (P20138 18-364 S195A limits assumed): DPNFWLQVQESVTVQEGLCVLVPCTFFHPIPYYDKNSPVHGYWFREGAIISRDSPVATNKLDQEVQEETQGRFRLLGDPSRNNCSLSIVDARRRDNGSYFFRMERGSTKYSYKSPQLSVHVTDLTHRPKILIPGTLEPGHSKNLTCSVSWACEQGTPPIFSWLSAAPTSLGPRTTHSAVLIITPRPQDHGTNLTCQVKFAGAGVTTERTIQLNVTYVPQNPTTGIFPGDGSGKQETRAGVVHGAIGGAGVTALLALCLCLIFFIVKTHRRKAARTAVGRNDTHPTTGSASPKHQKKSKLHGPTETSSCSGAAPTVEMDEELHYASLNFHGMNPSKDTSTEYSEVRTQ

T11 sequence (P20138 18-364 T173A limits assumed): as the sequence (P20138 18-364 S195A limits assumed) above, with T156A, A178S counted along it
Chain of human CD33 D95A (P20138 18-364 D95A limits assumed): as the sequence (P20138 18-364 S195A limits assumed) above, with D78A, A178S counted along it
T5 sequence (P20138 18-364 P150A limits assumed): as the sequence (P20138 18-364 S195A limits assumed) above, with P133A, A178S counted along it
Chain of human CD33 R89A (P20138 18-364 R89A limits assumed): as the sequence (P20138 18-364 S195A limits assumed) above, with R72A, A178S counted along it
T10 sequence (P20138 18-364 C169A limits assumed): as the sequence (P20138 18-364 S195A limits assumed) above, with C152A, A178S counted along it
Chain of human CD33 T75A (P20138 18-364 T75A limits assumed): as the sequence (P20138 18-364 S195A limits assumed) above, with T58A, A178S counted along it
Chain of human CD33 S68A (P20138 18-364 S68A limits assumed): as the sequence (P20138 18-364 S195A limits assumed) above, with S51A, A178S counted along it
T13 sequence (P20138 18-364 L180A limits assumed): as the sequence (P20138 18-364 S195A limits assumed) above, with L163A, A178S counted along it
T1 sequence (P20138 18-364 Y127A limits assumed): as the sequence (P20138 18-364 S195A limits assumed) above, with Y110A, A178S counted along it
T2 sequence (P20138 18-364 S131A limits assumed): as the sequence (P20138 18-364 S195A limits assumed) above, with S114A, A178S counted along it
T12 sequence (P20138 18-364 R122A limits assumed): as the sequence (P20138 18-364 S195A limits assumed) above, with R105A, A178S counted along it
T15 sequence (P20138 18-364 R190A limits assumed): as the sequence (P20138 18-364 S195A limits assumed) above, with R173A, A178S counted along it
T6 sequence (P20138 18-364 T152A limits assumed): as the sequence (P20138 18-364 S195A limits assumed) above, with T135A, A178S counted along it
Chain of human CD33 A108S (P20138 18-364 A108S limits assumed): as the sequence (P20138 18-364 S195A limits assumed) above, with A91S, A178S counted along it
Chain of human CD33 R91A (P20138 18-364 R91A limits assumed): as the sequence (P20138 18-364 S195A limits assumed) above, with R74A, A178S counted along it
Chain of human CD33 W60A (P20138 18-364 W60A limits assumed): as the sequence (P20138 18-364 S195A limits assumed) above, with W43A, A178S counted along it
Chain of human CD33 S102A (P20138 18-364 S102A limits assumed): as the sequence (P20138 18-364 S195A limits assumed) above, with S85A, A178S counted along it
Chain of human CD33 P46A (P20138 18-364 P46A limits assumed): as the sequence (P20138 18-364 S195A limits assumed) above, with P29A, A178S counted along it
Chain of human CD33 D112A (P20138 18-364 D112A limits assumed): as the sequence (P20138 18-364 S195A limits assumed) above, with D95A, A178S counted along it
Chain of human CD33 N99A (P20138 18-364 N99A limits assumed): as the sequence (P20138 18-364 S195A limits assumed) above, with N82A, A178S counted along it
Chain of human CD33 G58A (P20138 18-364 G58A limits assumed): as the sequence (P20138 18-364 S195A limits assumed) above, with G41A, A178S counted along it
Chain of human CD33 P72A (P20138 18-364 P72A limits assumed): as the sequence (P20138 18-364 S195A limits assumed) above, with P55A, A178S counted along it
Chain of human CD33 K52A (P20138 18-364 K52A limits assumed): as the sequence (P20138 18-364 S195A limits assumed) above, with K35A, A178S counted along it
Chain of human CD33 L78A (P20138 18-364 L78A limits assumed): as the sequence (P20138 18-364 S195A limits assumed) above, with L61A, A178S counted along it
T3 sequence (P20138 18-364 T139A limits assumed): as the sequence (P20138 18-364 S195A limits assumed) above, with T122A, A178S counted along it
Chain of human CD33 P55A (P20138 18-364 P55A limits assumed): as the sequence (P20138 18-364 S195A limits assumed) above, with P38A, A178S counted along it
Chain of human CD33 E85A (P20138 18-364 E85A limits assumed): as the sequence (P20138 18-364 S195A limits assumed) above, with E68A, A178S counted along it
Chain of human CD33 Q87A (P20138 18-364 Q87A limits assumed): as the sequence (P20138 18-364 S195A limits assumed) above, with Q70A, A178S counted along it
T9 sequence (P20138 18-364 E121A limits assumed): as the sequence (P20138 18-364 S195A limits assumed) above, with E104A, A178S counted along it
T4 sequence (P20138 18-364 R144A limits assumed): as the sequence (P20138 18-364 S195A limits assumed) above, with R127A, A178S counted along it
T14 sequence (P20138 18-364 A183S limits assumed): as the sequence (P20138 18-364 S195A limits assumed) above, with A166S, A178S counted along it
T7 sequence (P20138 18-364 L153A limits assumed): as the sequence (P20138 18-364 S195A limits assumed) above, with L136A, A178S counted along it
T8 sequence (P20138 18-364 E154A limits assumed): as the sequence (P20138 18-364 S195A limits assumed) above, with E137A, A178S counted along it
Chain of human CD33 G94A (P20138 18-364 G94A limits assumed): as the sequence (P20138 18-364 S195A limits assumed) above, with G77A, A178S counted along it
T16 sequence (P20138 18-364 H193A limits assumed): as the sequence (P20138 18-364 S195A limits assumed) above, with H176A, A178S counted along it

Row | Binder | Mean % WT Binding (human CD33 K52A) [% WT binding] | Mean % WT Binding (human CD33 P55A) [% WT binding] | Mean % WT Binding (human CD33 G58A) [% WT binding] | Mean % WT Binding (human CD33 W60A) [% WT binding] | Mean % WT Binding (human CD33 S68A) [% WT binding] | Mean % WT Binding (human CD33 P72A) [% WT binding] | Mean % WT Binding (human CD33 T75A) [% WT binding] | Mean % WT Binding (human CD33 L78A) [% WT binding] | Mean % WT Binding (human CD33 E85A) [% WT binding] | Mean % WT Binding (human CD33 Q87A) [% WT binding] | Mean % WT Binding (human CD33 R89A) [% WT binding] | Mean % WT Binding (human CD33 R91A) [% WT binding] | Mean % WT Binding (human CD33 G94A) [% WT binding] | Mean % WT Binding (human CD33 D95A) [% WT binding] | Mean % WT Binding (human CD33 N99A) [% WT binding] | Mean % WT Binding (human CD33 P46A) [% WT binding] | Mean % WT Binding (human CD33 S102A) [% WT binding] | Mean % WT Binding (human CD33 A108S) [% WT binding] | Mean % WT Binding (human CD33 D112A) [% WT binding] | Mean % WT Binding (human CD33 Y127A) [% WT binding] | also measured
1 | Refmab #6 (antibody, V domains shown, Full-length format is human IgG1 Fc silent (PG-LALA); also made as Fab; The alanine scan used IgG or Fab) VH: QVQLQQPGAEVVKPGASVKMSCKASGYTFTSYYIHWIKQTPGQGLEWVGVIYPGNDDISYNQKFQGKATLTADKSSTTAYMQLSSLTSEDSAVYYCAREVRLRYFDVWGQGTTVTVSS VL: EIVLTQSPGSLAVSPGERVTMSCKSSQSVFFSSSQKNYLAWYQQIPGQSPRLLIYWASTRESGVPDRFTGSGSGTDFTLTISSVQPEDLAIYYCHQYLSSRTFGQGTKLEIK | 77 | 101 | 73.9 | 2.1 | 86.4 | 92.3 | 102 | 110 | 94.4 | 96.9 | 80.8 | 91.4 | 93.1 | 86.3 | 92 | 49.3 | 85.1 | 78.4 | 51.6 |  | 
2 | Refmab #6 (antibody, V domains shown, The alanine scan used IgG or Fab) VH: QVQLQQPGAEVVKPGASVKMSCKASGYTFTSYYIHWIKQTPGQGLEWVGVIYPGNDDISYNQKFQGKATLTADKSSTTAYMQLSSLTSEDSAVYYCAREVRLRYFDVWGQGTTVTVSS VL: EIVLTQSPGSLAVSPGERVTMSCKSSQSVFFSSSQKNYLAWYQQIPGQSPRLLIYWASTRESGVPDRFTGSGSGTDFTLTISSVQPEDLAIYYCHQYLSSRTFGQGTKLEIK |  |  |  |  |  |  |  |  |  |  |  |  |  |  |  |  |  |  |  | 42 | Mean % WT Binding (human CD33 S131A): 10.8 % WT binding; Mean % WT Binding (human CD33 T139A): 97.7 % WT binding; Mean % WT Binding (human CD33 R144A): 104 % WT binding; Mean % WT Binding (human CD33 P150A): 106 % WT binding; Mean % WT Binding (human CD33 T152A): 92.7 % WT binding; Mean % WT Binding (human CD33 L153A): 94.3 % WT binding; Mean % WT Binding (human CD33 E154A): 86.2 % WT binding; Mean % WT Binding (human CD33 E121A): 90.8 % WT binding; Mean % WT Binding (human CD33 C169A): 76.2 % WT binding; Mean % WT Binding (human CD33 T173A): 98.9 % WT binding; Mean % WT Binding (human CD33 R122A): 106 % WT binding; Mean % WT Binding (human CD33 L180A): 97.1 % WT binding; Mean % WT Binding (human CD33 A183S): 92.3 % WT binding; Mean % WT Binding (human CD33 R190A): 112 % WT binding; Mean % WT Binding (human CD33 H193A): 100 % WT binding; Mean % WT Binding (human CD33 S195A): 113 % WT binding
3 | Refmab #5 (antibody, V domains shown, Full-length format is human IgG1 Fc silent (PG-LALA); also made as Fab; The alanine scan used IgG or Fab) VH: QVQLVQSGAEVKKPGASVKVSCKASGYTFTNYDINWVRQAPGQGLEWIGWIYPGDGSTKYNEKFKAKATLTADTSTSTAYMELRSLRSDDTAVYYCASGYEDAMDYWGQGTTVTVSS VL: DIQMTQSPSSLSASVGDRVTINCKASQDINSYLSWFQQKPGKAPKTLIYRANRLVDGVPSRFSGSGSGQDYTLTISSLQPEDFATYYCLQYDEFPLTFGGGTKVEIK | 11.9 | 118 | 112 | 35.9 | 142 | 116 | 120 | 99.3 | 158 | 137 | 137 | 101 | 92.2 | 122 | 88.4 | 79.1 | 154 | 105 | 61.2 |  | 
4 | Refmab #5 (antibody, V domains shown, The alanine scan used IgG or Fab) VH: QVQLVQSGAEVKKPGASVKVSCKASGYTFTNYDINWVRQAPGQGLEWIGWIYPGDGSTKYNEKFKAKATLTADTSTSTAYMELRSLRSDDTAVYYCASGYEDAMDYWGQGTTVTVSS VL: DIQMTQSPSSLSASVGDRVTINCKASQDINSYLSWFQQKPGKAPKTLIYRANRLVDGVPSRFSGSGSGQDYTLTISSLQPEDFATYYCLQYDEFPLTFGGGTKVEIK |  |  |  |  |  |  |  |  |  |  |  |  |  |  |  |  |  |  |  | 199 | Mean % WT Binding (human CD33 S131A): 106 % WT binding; Mean % WT Binding (human CD33 T139A): 104 % WT binding; Mean % WT Binding (human CD33 R144A): 71 % WT binding; Mean % WT Binding (human CD33 P150A): 132 % WT binding; Mean % WT Binding (human CD33 T152A): 137 % WT binding; Mean % WT Binding (human CD33 L153A): 101 % WT binding; Mean % WT Binding (human CD33 E154A): 112 % WT binding; Mean % WT Binding (human CD33 E121A): 105 % WT binding; Mean % WT Binding (human CD33 C169A): 101 % WT binding; Mean % WT Binding (human CD33 T173A): 101 % WT binding; Mean % WT Binding (human CD33 R122A): 85.7 % WT binding; Mean % WT Binding (human CD33 L180A): 118 % WT binding; Mean % WT Binding (human CD33 A183S): 101 % WT binding; Mean % WT Binding (human CD33 R190A): 112 % WT binding; Mean % WT Binding (human CD33 H193A): 119 % WT binding; Mean % WT Binding (human CD33 S195A): 117 % WT binding
